How the values were obtained:
Assay in all cases: cell-based or functional assay
[1] = target: HIV-1 Env of pseudovirus X1254_c3 (clade G) (HIV-1)
[2] = target: HIV-1 Env of pseudovirus 246F C1G (clade C (T/F)) (HIV-1)
[3] = target: HIV-1 Env of pseudovirus CNE20 (clade BC) (HIV-1)
[4] = target: HIV-1 Env of pseudovirus Du422.1 (clade C) (HIV-1)
[5] = target: HIV-1 Env of pseudovirus CNE8 (clade CRF01_AE) (HIV-1)
[6] = target: HIV-1 Env pseudovirus CNE5 (HIV-1)
[7] = target: HIV-1 Env of pseudovirus 1394C9G1 (Rev-) (HIV-1)
[8] = target: MuLV pseudovirus (Neg. Control) (MuLV)
[9] = target: HIV-1 Env of pseudovirus MS208A1 (HIV-1)

Substance: PG16 (antibody)
- IC50, titer in TZM.bl cells [1]: 0.023 µg/mL
- IC80, titer in TZM.bl cells [1]: 0.218 µg/mL

Substance: 10E8 (antibody)
- IC50, titer in TZM.bl cells [1]: 4.75 µg/mL
- IC80, titer in TZM.bl cells [1]: > 10 µg/mL

Substance: N49P11 (antibody)
- IC50 [2]: 8.48 µg/mL
- IC80 [2]: 20.9 µg/mL
- MPI [2]: 100
- IC50 [3]: 5.19 µg/mL
- IC80 [3]: 22.6 µg/mL
- MPI [3]: 100
- IC50 [4]: 8.81 µg/mL
- IC80 [4]: 21.2 µg/mL
- MPI [4]: 100

Substance: 10-1074 (antibody)
- IC50, titer in TZM.bl cells [5]: > 50 µg/mL
- IC80, titer in TZM.bl cells [5]: > 50 µg/mL
- IC50, titer in TZM.bl cells [1]: 0.089 µg/mL
- IC80, titer in TZM.bl cells [1]: 0.297 µg/mL

Substance: PG9 (antibody)
- IC50, titer in TZM.bl cells [1]: 0.065 µg/mL
- IC80, titer in TZM.bl cells [1]: 0.304 µg/mL

Substance: N49P9.1 (antibody)
- IC50 [6]: 0.183 µg/mL
- IC80 [6]: 0.641 µg/mL
- MPI [6]: 100

Substance: VRC01 (antibody)
- IC50, titer in TZM.bl cells [7]: 0.36 µg/mL
- IC80, titer in TZM.bl cells [7]: 1.28 µg/mL

Substance: N49P19 (antibody)
- IC50 [6]: 0.748 µg/mL
- IC80 [6]: 3.29 µg/mL
- MPI [6]: 100
- IC50 [8]: > 50 µg/mL
- IC80 [8]: > 50 µg/mL
- MPI [8]: 0

Substance: N49P9 (antibody)
- IC50 [8]: > 50 µg/mL
- IC80 [8]: > 50 µg/mL
- MPI [8]: 13

Substance: N49P7 (antibody)
- neutralization IC50 [9]: 0.12 µg/mL
- neutralization IC80 [9]: 0.479 µg/mL
- neutralization MPI [9]: 100

Substance: N49P7.1 (antibody)
- neutralization IC50 [9]: 0.12 µg/mL
- neutralization IC80 [9]: 0.431 µg/mL
- neutralization MPI [9]: 100

Substance: N49P7.2 (antibody)
- IC50 [2]: 0.049 µg/mL
- IC80 [2]: 0.192 µg/mL
- MPI [2]: 100
- IC50 [3]: 0.119 µg/mL
- IC80 [3]: 0.574 µg/mL
- MPI [3]: 99
- IC50 [4]: > 50 µg/mL
- IC80 [4]: > 50 µg/mL
- MPI [4]: 22

Substance: N49P18.1 (antibody)
- IC50 [2]: 3.4 µg/mL
- IC80 [2]: 20.2 µg/mL
- MPI [2]: 97
- IC50 [3]: 1.33 µg/mL
- IC80 [3]: 6.36 µg/mL
- MPI [3]: 100
- IC50 [4]: 21.5 µg/mL
- IC80 [4]: > 50 µg/mL
- MPI [4]: 75

Reference: patent publication US20230002480A1
